Measurements taken from doi:10.1101/2021.06.21.449279.

Legend:
[1] = molecular target: CwlDΔ25-His6 (C. difficile); test: pull-down
[2] = molecular target: GerSΔ22 (untagged) (C. difficile); test: crystal structure
[3] = molecular target: CwlD_(E199A)-His6 (C. difficile); test: SEC
[4] = molecular target: CwlDΔ25-His6 (C. difficile); test: SEC
[5] = molecular target: CwlD_(H49A)-His6 (C. difficile); test: SEC
[6] = molecular target: CwlD_(E65A)-His6 (C. difficile); test: SEC
[7] = molecular target: CwlD R169Q-His6 (C. difficile); test: pull-down
[8] = molecular target: CwlD R169D-His6 (C. difficile); test: pull-down
[9] = molecular target: FLAG-tagged CwlD_(R169D) (C. difficile); test: co-IP
[10] = molecular target: CwlD_(E199A)-FLAG (C. difficile); test: co-IP
[11] = molecular target: FLAG-tagged CwlD_(H49A) (C. difficile); test: co-IP
[12] = molecular target: GerSΔ22-His6 (C. difficile); test: SEC

With “GerS D106A (untagged) (domain or fragment)” the reduction of GerS co-purification against the wild-type complex [1] was 90%.
Work on GerSΔ22 (untagged) (domain or fragment) yielded a stoichiometry N [2] of 2, a stoichiometry N [3] of 1 and a stoichiometry N [4] of 1. It also gave a stoichiometry N [5] of 1, a stoichiometry N [6] of 1 and a reduction of GerS co-purification against the wild-type complex [7] of 90%. It also gave a reduction of GerS co-purification against the wild-type complex [8] of 90%.
Work on “GerS D106R (untagged) (domain or fragment)” yielded a reduction of GerS co-purification against the wild-type complex [1] of 90%.
Work on “cleaved form of GerS (untagged, in sporulating C. difficile) (natural protein)” yielded a fold reduction of GerS pulled down against wild-type FLAG-tagged CwlD [9] of 5 fold, a decrease of the interaction against the wild-type CwlD:GerS complex [10] of 40% and a fold reduction of GerS pulled down against wild-type FLAG-tagged CwlD [11] of 5 fold.
CwlDΔ25-His6 (domain or fragment) showed a stoichiometry N [4] of 2.
Work on GerSΔ22-His6 (domain or fragment) yielded a stoichiometry N [12] of 2.
